Patent publication US20180360749A1, “METHODS AND COMPOSITIONS FOR DELIVERY OF MEDICAMENTS TO THE LUNGS” (Paka Pulmonary Pharmaceuticals, priority 2007, published 2018)

Legend:
HNE [1] = target: T1, HNE (Homo sapiens, UniProt P08246); assay: Bronchoalveolar lavage of the lungs following HNE exposure (lung blood cell level); assay type: in vivo; details: mice
T1 sequence (P08246 30-267): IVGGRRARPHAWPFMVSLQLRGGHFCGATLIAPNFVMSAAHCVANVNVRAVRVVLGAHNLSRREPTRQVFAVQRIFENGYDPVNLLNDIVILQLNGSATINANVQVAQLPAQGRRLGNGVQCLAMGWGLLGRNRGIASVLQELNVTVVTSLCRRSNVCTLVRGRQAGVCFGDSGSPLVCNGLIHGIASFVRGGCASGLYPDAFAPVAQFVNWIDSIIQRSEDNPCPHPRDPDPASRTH
Experimental: A total of 14 animals were used in this study. Anesthetized mice received 0.1 ml of solution delivered by a blunt tip catheter to the opening of the trachea and the animals allowed to aspirate the solution into their lungs. All animals were exposed to the treatment for 2 hours and re-anesthetized. Bronchoalveolar lavage of the lungs was performed as described below. […] Target 2 (a potent HNE inhibitor developed by Zeneca in the early 1990s) when given with the HNE, reduced the average blood level in the lungs by 34% to 0.035 grams. Target C (the Zeneca molecule covalently attached to the N-terminus of the first 25 residues of the human surfactant B peptide) when given with the HNE reduced the average blood level in the lungs by 87% to 0.007 grams.
A set of animals was used to determine the optimal concentration of HNE for the study. […] The amount of HNE was reduced to 40 micrograms to maintain a maximal detrimental but survivable effect. The animals exposed to 40 micrograms of HNE were able to survive long enough to perform the complete study. All animals remaining in the complete study were exposed to 40 micrograms of HNE.
Target 2 (the Zeneca molecule) was given in a 70-fold molar excess relative to HNE. In the kinetic studies, Target 2 has 2 nM affinity. […] Accordingly, the Target C was given to the animals in a 100 fold molar excess relative to HNE in these studies.
Bronchio-Alveolar lavage (BAL) is performed by 1) anesthetizing the animals; 2) performing a tracheotomy on the animals and cutting open the chest and spreading the ribs to enable full lung expansion; 3) pressurizing lml of PBS buffer solution into the lungs through the tracheotomy catheter; 4) sucking the solution out of the lungs; 5) centrifuging the recovered solution to separate the red blood cell fraction from the liquid fraction; and 6) weighing the red blood cell fraction.

HNE [2] = target: T1, HNE; assay: Kinetic studies of affinity for HNE; assay type: biochemical
[3] = given with 40 micrograms HNE via trachea, 2 hours exposure, weight of BAL red blood cell fraction, Target 2 70-fold, Target C 100 fold molar excess relative to HNE

For “Target C: the Zeneca molecule covalently attached to the N-terminus of the first 25 residues of the human surfactant B peptide (FPIPLPYCWLCRALIKRIQAMIPKG)”, the “Lung Blood Cell Level Measurements, Mouse group 1” value (HNE [1]; [3]) was 0 g, the “Lung Blood Cell Level Measurements, Mouse group 2” value (HNE [1]; [3]) was 0.007 g and the “Lung Blood Cell Level Measurements, Mouse group 3” value (HNE [1]; [3]) was 0.014 g. For the same substance, the “Lung Blood Cell Level Measurements, Group mean” value (HNE [1]; given with 40 micrograms HNE, 2 hours exposure, mean of the mouse groups) was 0.007 g, the “average blood level in the lungs (lung blood cell level by weight)” value (HNE [1]; given with the HNE, 2 hours exposure) was 0.007 grams and the “reduction of the average blood level in the lungs” value (HNE [1]; given with the HNE, relative to animals given HNE (0.053 grams)) was 87%. For the same substance, the Ki (HNE [2]) was about 200 nM and the “loss of potency as compared to Target 2” value (HNE [2]) was “approximately two orders of magnitude”.
